Experimental findings from publication PMC3097136 are described below.

In series [1] the target is T1, COUP-TFI (Nr2f1) (Mus musculus, UniProt Q60632 1-422).
T1 sequence: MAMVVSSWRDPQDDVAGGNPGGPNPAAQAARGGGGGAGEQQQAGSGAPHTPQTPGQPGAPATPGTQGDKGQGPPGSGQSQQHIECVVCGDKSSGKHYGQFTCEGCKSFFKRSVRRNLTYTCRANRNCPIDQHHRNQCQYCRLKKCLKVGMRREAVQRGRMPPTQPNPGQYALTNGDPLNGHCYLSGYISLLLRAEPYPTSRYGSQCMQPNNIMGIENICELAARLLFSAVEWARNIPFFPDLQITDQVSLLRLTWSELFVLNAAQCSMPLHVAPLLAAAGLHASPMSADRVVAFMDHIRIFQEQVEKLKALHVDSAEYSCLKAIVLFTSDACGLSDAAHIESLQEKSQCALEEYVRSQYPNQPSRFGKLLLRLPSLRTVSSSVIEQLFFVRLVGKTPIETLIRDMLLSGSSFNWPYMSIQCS
Briefly: competition.

Series [2] concerns the target tESR1 (estrogen receptor alpha DNA-binding domain) (Homo sapiens, UniProt P03372 185-250). Briefly: EMSA. (A gel shift assay detects complexes by their altered migration in electrophoresis.)
The target in a further series is T2, COUP-TFII (Nr2f2) (Mus musculus, UniProt P43135 1-414).
T2 sequence: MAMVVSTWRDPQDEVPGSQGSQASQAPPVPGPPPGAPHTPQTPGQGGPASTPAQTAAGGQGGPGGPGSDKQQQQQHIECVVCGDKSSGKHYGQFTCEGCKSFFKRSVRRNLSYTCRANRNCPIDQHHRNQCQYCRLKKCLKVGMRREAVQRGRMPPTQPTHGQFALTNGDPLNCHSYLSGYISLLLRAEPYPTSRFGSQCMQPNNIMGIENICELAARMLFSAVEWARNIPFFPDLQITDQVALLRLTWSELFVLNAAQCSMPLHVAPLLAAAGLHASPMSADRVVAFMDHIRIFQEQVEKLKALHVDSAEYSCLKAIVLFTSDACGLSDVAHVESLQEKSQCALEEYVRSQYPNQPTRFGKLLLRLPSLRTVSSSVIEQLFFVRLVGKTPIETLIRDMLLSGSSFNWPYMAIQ
Briefly: EMSA.

Series [3] deals with T1, COUP-TFI (Nr2f1). The series is described as follows: EMSA.
Series [4] has as its target T1, COUP-TFI (Nr2f1). The series is described as follows: competition. This is another data set of the same source.

tESR1 (estrogen receptor alpha DNA-binding domain), sequence (P03372 185-250): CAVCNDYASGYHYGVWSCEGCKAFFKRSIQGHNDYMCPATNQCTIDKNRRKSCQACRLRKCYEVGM

B1: cold probe A* (dsDNA)
DNA 1: ATCCAAGCTCGAATTGAAATCTCTTT
DNA 2: AAAGAGATTTCAATTCGAGCTTGGAT
In the case of B1, in the series with COUP-TFI (Nr2f1) [1], the binding result is “no binding”.

B2: probe A (nPE2 NRBE) (dsDNA)
DNA 1: ATCCAAAGGTCAATTGAAATCTCTTT
DNA 2: AAAGAGATTTCAATTGACCTTTGGAT
As for B2, the binding result (in series [2]; with COUP-TFII (Nr2f2); in the series with COUP-TFI (Nr2f1) [3]) was “binds” each time.

B3: cold probe A (dsDNA)
DNA 1: ATCCAAAGGTCAATTGAAATCTCTTT
DNA 2: AAAGAGATTTCAATTGACCTTTGGAT
Regarding B3, the binding result in the series with COUP-TFI (Nr2f1) [4] is reported as “binds”.

B4: probe A* (mutated NRBE) (dsDNA)
DNA 1: ATCCAAGCTCGAATTGAAATCTCTTT
DNA 2: AAAGAGATTTCAATTCGAGCTTGGAT
Regarding B4, the binding result (in series [2]; in the series with COUP-TFI (Nr2f1) [3]) was “no binding” each time.
